6 molecules from article PMC2192576 (1996) can be followed below.

Assay [1] concerns the target T1, influenza virus (A/PR/8/34) HA (hemagglutinin) peptide on HLA-DRA*01:01 / HLA-DRB1*04:01 (human).
T1 peptide: PKYVKQNTLKLAT
Nature of the assay: cytokine release.

In assay [2] the target is T2, influenza virus (A/PR/8/34) HA (hemagglutinin) peptide on HLA-DRA*01:01 / HLA-DRB1*07:01 (human).
T2 peptide: PKYVKQNTLKLAT
Briefly: cytokine release.

B1: 3BC6.6 TCR (TCR, V domains shown)
Valpha: QSVTQLGSHVSVSEGALVLLRCNYSSSVPPYLFWYVQYPNQGLQLLLKYTSAATLVKGINGFEAEFKKSETSFHLTKPSAHMSDAAEYFCAVSEDTSYDKVIFGPGTSLSVIP
Vbeta: DVKVTQSSRYLVKRTGEKVFLECVQDMDHENMFWYRQDPGLGLRLIYFSYDVEMKEKGDIPEGYSVSREKKERFSLILESASTNQTSMYLCASSLTTSGYTFGSGTRLTVV
Consider B1, for which the binding result in assay [1] is “recognises”; in assay [2], “no recognition”.

B2: JS515.11 TCR (TCR, V domains shown)
Valpha: QSVTQLGSHVSVSEGALVLLRCNYSSSVPPYLFWYVQYPNQGLQLLLKYTTGATLVKGINGFEAEFKKSETSFHLTKPSAHMSDAAEYFCAVSEGGGSEKLVFGKGTKLTVNP
Vbeta: DVKVTQSSRYLVKRTGEKVFLECVQDMDHENMFWYRQDPGLGLRLIYFSYDVEMKEKGDIPEGYSVSREKKERFSLILESASTNQTSMYLCASSPGTSGTTYEQYFGPGTRLTVT
As for B2, the binding result in assay [1] and in assay [2] was “recognises” in each case.

B3: hybrid TCR: 3BC6.6 TCRA with JS515.11 TCRB (TCR, V domains shown)
Valpha: QSVTQLGSHVSVSEGALVLLRCNYSSSVPPYLFWYVQYPNQGLQLLLKYTSAATLVKGINGFEAEFKKSETSFHLTKPSAHMSDAAEYFCAVSEDTSYDKVIFGPGTSLSVIP
Vbeta: DVKVTQSSRYLVKRTGEKVFLECVQDMDHENMFWYRQDPGLGLRLIYFSYDVEMKEKGDIPEGYSVSREKKERFSLILESASTNQTSMYLCASSPGTSGTTYEQYFGPGTRLTVT
Turning to B3, the binding result in assay [1] and in assay [2] was “no recognition” throughout.

B4: hybrid TCR: JS515.11 TCRA with 3BC6.6 TCRB (TCR, V domains shown)
Valpha: QSVTQLGSHVSVSEGALVLLRCNYSSSVPPYLFWYVQYPNQGLQLLLKYTTGATLVKGINGFEAEFKKSETSFHLTKPSAHMSDAAEYFCAVSEGGGSEKLVFGKGTKLTVNP
Vbeta: DVKVTQSSRYLVKRTGEKVFLECVQDMDHENMFWYRQDPGLGLRLIYFSYDVEMKEKGDIPEGYSVSREKKERFSLILESASTNQTSMYLCASSLTTSGYTFGSGTRLTVV
In the case of B4, the binding result in assay [1] and in assay [2] was “no recognition” throughout.

B5: JS515.11 TCR with Thr-51 substituted with Ser in CDR2 of the alpha chain (TCR, V domains shown)
Valpha: QSVTQLGSHVSVSEGALVLLRCNYSSSVPPYLFWYVQYPNQGLQLLLKYTSGATLVKGINGFEAEFKKSETSFHLTKPSAHMSDAAEYFCAVSEGGGSEKLVFGKGTKLTVNP
Vbeta: DVKVTQSSRYLVKRTGEKVFLECVQDMDHENMFWYRQDPGLGLRLIYFSYDVEMKEKGDIPEGYSVSREKKERFSLILESASTNQTSMYLCASSPGTSGTTYEQYFGPGTRLTVT
For the molecule B5, the binding result in assay [2] is “recognises”.

B6: JS515.11 TCR with Gly-52 substituted with Ala in CDR2 of the alpha chain (TCR, V domains shown)
Valpha: QSVTQLGSHVSVSEGALVLLRCNYSSSVPPYLFWYVQYPNQGLQLLLKYTTAATLVKGINGFEAEFKKSETSFHLTKPSAHMSDAAEYFCAVSEGGGSEKLVFGKGTKLTVNP
Vbeta: DVKVTQSSRYLVKRTGEKVFLECVQDMDHENMFWYRQDPGLGLRLIYFSYDVEMKEKGDIPEGYSVSREKKERFSLILESASTNQTSMYLCASSPGTSGTTYEQYFGPGTRLTVT
Take B6: in assay [2], the binding result is on record as “recognises”.
